Consider two substances from paper PMC4675670.

The series deals with O=C(O)[C@@H]1CCCN1. In words: enzyme kinetics, Km. It is filed as biochemical, Plasmodium falciparum. The settings on record: proline-binding pocket.

What is called Km is the concentration of substrate that gives half-maximal velocity. For “cytoplasmic prolyl-tRNA synthetase (PfcPRS, PF3D7_1213800) (Plasmodium falciparum 3D7; L482H)”, the Michaelis constant (Km) was 747.7 µM.

Consider “cytoplasmic prolyl-tRNA synthetase (PfcPRS, PF3D7_1213800) (Plasmodium falciparum 3D7)”, for which the Michaelis constant (Km) is recorded as 117.0 µM.
